What was measured:
Experiment in all cases: cell-based or functional assay
[1] = target: AAV2 capsid (AAV2-Luciferase vector virions) (AAV2) (UniProt P03135)
[2] = target: human intravenous immunoglobulin gamma (IVIG), 10% Human IVIG (Gamunex) (human)
[3] = target: AAV neutralizing antibodies in AAV8-GFP immunized C57BL6 mice (mouse)
[4] = target: AAV2 capsid (AAV2-Luciferase vector virions) (AAV2) (UniProt P03135); remark: listed apart in the source
[5] = target: human intravenous immunoglobulin gamma (IVIG), 10% Human IVIG (Gamunex) (human); remark: listed apart in the source

Sequence of UniProt P03135 (P03135 whole entry, the tested form may be a part): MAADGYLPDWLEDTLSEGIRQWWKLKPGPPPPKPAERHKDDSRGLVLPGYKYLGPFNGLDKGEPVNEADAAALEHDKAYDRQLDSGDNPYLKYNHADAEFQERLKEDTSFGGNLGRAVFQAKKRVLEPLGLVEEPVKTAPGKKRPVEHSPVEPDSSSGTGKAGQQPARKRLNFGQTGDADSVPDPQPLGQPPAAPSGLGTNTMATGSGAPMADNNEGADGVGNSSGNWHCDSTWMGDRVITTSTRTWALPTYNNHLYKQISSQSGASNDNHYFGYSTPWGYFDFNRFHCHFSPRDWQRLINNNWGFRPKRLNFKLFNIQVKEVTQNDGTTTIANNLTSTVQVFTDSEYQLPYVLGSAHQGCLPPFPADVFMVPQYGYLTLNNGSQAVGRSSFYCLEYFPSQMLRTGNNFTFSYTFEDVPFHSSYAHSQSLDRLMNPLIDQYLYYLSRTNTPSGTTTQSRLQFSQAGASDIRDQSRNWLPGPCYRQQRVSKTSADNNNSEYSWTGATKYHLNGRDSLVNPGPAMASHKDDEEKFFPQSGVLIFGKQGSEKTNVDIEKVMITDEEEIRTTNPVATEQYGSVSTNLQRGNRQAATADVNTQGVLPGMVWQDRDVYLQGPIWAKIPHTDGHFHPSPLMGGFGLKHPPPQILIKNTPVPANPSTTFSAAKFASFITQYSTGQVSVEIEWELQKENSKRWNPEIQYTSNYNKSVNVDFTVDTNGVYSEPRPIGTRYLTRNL

For “Protein M without cleavage of His tag (from UniProt P47523 37-556)”, which molar ratio of protein M to AAV2 particle at which enhancement begins to saturate (protein M molecules per AAV2 particle) [1] is on record?
The molar ratio of protein M to AAV2 particle at which enhancement begins to saturate (protein M molecules per AAV2 particle) was 700000.

What about the molar ratio of protein M to AAV2 particle below which enhancement of luciferase signal is abolished (protein M molecules per AAV2 particle) [1] of the same molecule?
Its molar ratio of protein M to AAV2 particle below which enhancement of luciferase signal is abolished (protein M molecules per AAV2 particle) is less than 40000.

And the molar ratio of protein M to IVIG that protects AAV2 when protein M is pre-incubated with AAV2 (protein M molecules per IgG molecule) [2]?
Its molar ratio of protein M to IVIG that protects AAV2 when protein M is pre-incubated with AAV2 (protein M molecules per IgG molecule) is greater than 2.

What about the protection of AAV2 from IVIG neutralization in 10% FBS, protein M to total IgG molar ratio (protein M molecules per IgG molecule) [2] of the same molecule?
Its protection of AAV2 from IVIG neutralization in 10% FBS, protein M to total IgG molar ratio (protein M molecules per IgG molecule) is 1.

What does the source list for “human intravenous immunoglobulin gamma (IVIG), 10% Human IVIG (Gamunex) (antibody)”?
percent of AAV2-Luciferase signal neutralized by 12.5 µg IVIG [1]: 80%; percent of AAV2 neutralized by 12.5 µg IVIG [1]: 75%; percent of AAV2 neutralized by 200 µg IVIG [1]: 100%; reduction in AAV signal by 12.5 µg IVIG without protein M [1]: 68%

B1: Modified M. genitalium protein M MG29 (protein, not shown: small tags and cut ends)
chain: SLSLNDGSYQSEIDLSGGANFREKFRNFANELSEAITNSPKGLDRPVPKTEISGLIKTGDNFITPSFKAGYYDHVAEDGSLLSYYQSTEYFNNRVLMPILQTTNGTLMANNRGYDDVFRQVPRFPGWSNTKATTVSTSNNLTYDKWTYFAAKGSPLYDQYPNHTFEDVKTLAIDAKDISALKTTIDSEKPTYLIIRGLSGNGSQLNELQLPESVKKVSLYGDYTGVNVAKQIFANVVELEFYSTSKANSFGFNPLVLGSKTNVINDLFVSKPFTHIDLTQVTLQNSDNSAIDANKLKQAVGDIYNYRRFERQFQGYFAGGYIDKYLVKNVNTNKDSDDDLVYRSLKELNLHLEEAYREGDNTYYRVNENYYPGASIYENERASRDSEFQNEILKRAEQNGVTFDEN
With B1 as the molecule, how does the luciferase signal of the saline leg against the protein M formulated leg, AAV8-Luciferase re-dosing in immunized mice [3] read?
Its luciferase signal of the saline leg against the protein M formulated leg, AAV8-Luciferase re-dosing in immunized mice is greater than 98 % less.

B2: protein M (SEQ ID NO:2), His-tag removed by thrombin cleavage (protein)
chain: HHHHHHSSGLVPRGSHMTNLVNQSGYALVASGRSGNLGFKLFSTQSPSAEVKLKSLSLNDGSYQSEIDLSGGANFREKFRNFANELSEAITNSPKGLDRPVPKTEISGLIKTGDNFITPSFKAGYYDHVASDGSLLSYYQSTEYFNNRVLMPILQTTNGTLMANNRGYDDVFRQVPSFSGWSNTKATTVSTSNNLTYDKWTYFAAKGASPLYDSYPNHFFEDVKTLAIDAKDISALKTTIDSEKPTYLIIRGLSGNGSQLNELQLPESVKKVSLYGDYTGVNVAKQIFANVVELEFYSTSKANSEGFNPLVLGSKTNVIYDLFASKPFTHIDLTQVTLQNSDNSAIDANKLKQAVGDIYNYRRFERQFQGYFAGGYIDKYLVKNVNTNKDSDDDLVYRSLKELNLHLEEAYREGDNTYYRVNENYYPGASIYENERASRDSEFQNEILKRAEQNGVTFDENIKRITASGKYSVQFQKLENDTDSSLERMTKAVEGLVTVIGEEKFETVDITGVSSDTNEVKSLAKELKTNALGVKLKL
Which AAV2 luciferase signal relative to PBS control, 33 µg protein M incubated with AAV2 without IVIG (% of PBS control) [4] does the source give for B2 here?
The AAV2 luciferase signal relative to PBS control, 33 µg protein M incubated with AAV2 without IVIG (% of PBS control) was 216.

And the AAV2 luciferase signal relative to PBS control, 75 µg protein M incubated with AAV2 without IVIG (% of PBS control) [4]?
The AAV2 luciferase signal relative to PBS control, 75 µg protein M incubated with AAV2 without IVIG (% of PBS control) was 208.

What about the AAV2 luciferase signal, percent of no-IVIG control, at 8:1 molar ratio (33 µg protein M, 12.5 µg IVIG) (% of no-IVIG control) [5] of the same molecule?
The AAV2 luciferase signal, percent of no-IVIG control, at 8:1 molar ratio (33 µg protein M, 12.5 µg IVIG) (% of no-IVIG control) was 194.

And the AAV2 luciferase signal, percent of no-IVIG control, at 20:1 molar ratio (75 µg protein M, 12.5 µg IVIG) (% of no-IVIG control) [5]?
The AAV2 luciferase signal, percent of no-IVIG control, at 20:1 molar ratio (75 µg protein M, 12.5 µg IVIG) (% of no-IVIG control) was 256.

What about the AAV2 luciferase signal, percent of no-IVIG control, at protein M:IgG molar ratio 0.5:1 (% of no-IVIG control) [5] of the same molecule?
Its AAV2 luciferase signal, percent of no-IVIG control, at protein M:IgG molar ratio 0.5:1 (% of no-IVIG control) is 40.

And the AAV2 luciferase signal, percent of no-IVIG control, at protein M:IgG molar ratio 1:1 (% of no-IVIG control) [5]?
The AAV2 luciferase signal, percent of no-IVIG control, at protein M:IgG molar ratio 1:1 (% of no-IVIG control) was 52.

And the AAV2 luciferase signal, percent of no-IVIG control, at protein M:IgG molar ratios greater than 2:1 (% of no-IVIG control) [5]?
The AAV2 luciferase signal, percent of no-IVIG control, at protein M:IgG molar ratios greater than 2:1 (% of no-IVIG control) was 108 to 193.

What about the molar ratio of protein M to IgG sufficient to prevent AAV2 neutralization (protein M molecules per IgG molecule) [5] of the same molecule?
The molar ratio of protein M to IgG sufficient to prevent AAV2 neutralization (protein M molecules per IgG molecule) was 2.
